Measured values reported in publication PMC2917178 (Biochemistry, 2010).
Positions count from the first letter of the chain named. Names may count otherwise. “And” between values parts separate entries of the source, which are not always exact repeats. Equal entries are not always repeated.

Key:
Esa1 = details: E338Q vs wildtype Esa1, ref [35]; cited from earlier work
[1] = target: Rtt109 D288N (with Vps75) (Saccharomyces cerevisiae, UniProt P53853+Q07794, D288N); format: biochemical, yeast (Saccharomyces cerevisiae)
Chain of Rtt109 D288N (with Vps75) (P53853 whole entry, one chain of several): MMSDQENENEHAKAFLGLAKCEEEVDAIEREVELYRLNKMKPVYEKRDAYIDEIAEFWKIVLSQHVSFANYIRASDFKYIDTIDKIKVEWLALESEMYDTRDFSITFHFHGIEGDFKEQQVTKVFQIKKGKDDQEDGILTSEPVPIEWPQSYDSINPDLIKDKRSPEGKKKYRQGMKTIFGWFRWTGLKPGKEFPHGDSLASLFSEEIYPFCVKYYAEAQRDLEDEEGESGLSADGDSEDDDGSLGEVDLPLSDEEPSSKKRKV

[2] = target: Rtt109 D287N (with Vps75) (Saccharomyces cerevisiae, UniProt P53853+Q07794, D287N); format: biochemical, yeast (Saccharomyces cerevisiae); details: H3 peptide saturation
Chain of Rtt109 D287N (with Vps75) (P53853 whole entry): as the sequence (P53853 whole entry, one chain of several) above
Chain of Rtt109 D287N (with Vps75) (Q07794 whole entry D287N): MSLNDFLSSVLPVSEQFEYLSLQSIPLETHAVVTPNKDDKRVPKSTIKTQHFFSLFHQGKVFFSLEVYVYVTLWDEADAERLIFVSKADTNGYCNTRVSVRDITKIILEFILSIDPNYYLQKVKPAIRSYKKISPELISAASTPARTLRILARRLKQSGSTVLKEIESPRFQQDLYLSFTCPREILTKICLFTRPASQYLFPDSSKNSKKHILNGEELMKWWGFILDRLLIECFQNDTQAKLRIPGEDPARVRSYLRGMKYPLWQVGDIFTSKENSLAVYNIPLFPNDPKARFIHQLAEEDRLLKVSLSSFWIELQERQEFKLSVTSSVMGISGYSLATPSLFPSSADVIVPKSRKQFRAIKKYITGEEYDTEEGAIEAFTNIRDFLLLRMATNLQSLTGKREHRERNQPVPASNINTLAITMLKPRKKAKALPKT

[3] = target: T1, Rtt109 D287A/D288A (with Vps75) (Saccharomyces cerevisiae, UniProt P53853+Q07794, D287A/D288A); format: biochemical, yeast (Saccharomyces cerevisiae)
T1 sequence (Q07794 whole entry D287A/D288A): as the sequence (Q07794 whole entry D287N) above, with N287A, D288A counted along it
T1 sequence (P53853 whole entry): as the sequence (P53853 whole entry, one chain of several) above

[4] = target: T1, Rtt109 D287A/D288A (with Vps75); format: biochemical, yeast (Saccharomyces cerevisiae); details: H3 peptide saturation

B1: E338Q: Esa1 with mutation of the general base catalyst Glu-338 (protein, UniProt Q08649 1-445, looked up, variant E338Q)
Histone acetyltransferase ESA1: MSHDGKEEPGIAKKINSVDDIIIKCQCWVQKNDEERLAEILSINTRKAPPKFYVHYVNYNKRLDEWITTDRINLDKEVLYPKLKATDEDNKKQKKKKATNTSETPQDSLQDGVDGFSRENTDVMDLDNLNVQGIKDENISHEDEIKKLRTSGSMTQNPHEVARVRNLNRIIMGKYEIEPWYFSPYPIELTDEDFIYIDDFTLQYFGSKKQYERYRKKCTLRHPPGNEIYRDDYVSFFEIDGRKQRTWCRNLCLLSKLFLDHKTLYYDVDPFLFYCMTRRDELGHHLVGYFSKEKESADGYNVACILTLPQYQRMGYGKLLIEFSYELSKKENKVGSPQKPLSDLGLLSYRAYWSDTLITLLVEHQKEITIDEISSMTSMTTTDILHTAKTLNILRYYKGQHIIFLNEDILDRYNRLKAKKRRTIDPNRLIWKPPVFTASQLRFAW
In the case of B1, the “upward shift of pKa of ionizable group” value (Esa1) is listed as 1.4 pH-units.

B2: D288N: single point mutant of Rtt109 (protein, UniProt Q07794 1-436, looked up, variant D288N)
Histone acetyltransferase …: MSLNDFLSSVLPVSEQFEYLSLQSIPLETHAVVTPNKDDKRVPKSTIKTQHFFSLFHQGKVFFSLEVYVYVTLWDEADAERLIFVSKADTNGYCNTRVSVRDITKIILEFILSIDPNYYLQKVKPAIRSYKKISPELISAASTPARTLRILARRLKQSGSTVLKEIESPRFQQDLYLSFTCPREILTKICLFTRPASQYLFPDSSKNSKKHILNGEELMKWWGFILDRLLIECFQNDTQAKLRIPGEDPARVRSYLRGMKYPLWQVGDIFTSKENSLAVYNIPLFPDNPKARFIHQLAEEDRLLKVSLSSFWIELQERQEFKLSVTSSVMGISGYSLATPSLFPSSADVIVPKSRKQFRAIKKYITGEEYDTEEGAIEAFTNIRDFLLLRMATNLQSLTGKREHRERNQPVPASNINTLAITMLKPRKKAKALPKT
For B2, the “decrease in kcat/Km for AcCoA” value ([1]; AcCoA) was 1000 fold, the “decrease of kcat/Km for AcCoA versus wildtype” value ([1]; AcCoA) was ~3 orders of magnitude and the “increase in Km for AcCoA versus wildtype” value ([1]; AcCoA saturation) was roughly 16 fold. For the same molecule, the “decrease of kcat versus wildtype” value ([1]; H3 peptide saturation) was ~50 fold and 50-100 fold.

B3: D287N: single point mutant of Rtt109 (protein, UniProt Q07794 1-436, looked up, variant D287N)
Histone acetyltransferase …: B2 Histone acetyltransferase … with D287N, N288D
In the case of B3, the “decrease in activity (kcat) versus wildtype” value [2] is reported as roughly 10 fold.

B4: D287A/D288A: double point mutant of Rtt109 (protein, UniProt Q07794 1-436, looked up, variant D287A D288A)
Histone acetyltransferase …: B2 Histone acetyltransferase … with D287A, N288A
In the case of B4, the “downward shift of apparent pKa versus wildtype” value ([3]; D287A/D288A kcat pH profile) is reported as roughly 1 pH unit, the “pKa from kcat pH profile” value ([3]; D287A/D288A, ATE buffer, pH 7-9, 25 °C, 400 μM H3 peptide, 60 μM AcCoA, twice in duplicate, Eq. 11) is reported as 7.5 ± 0.1 and the “decrease of kcat versus wildtype” value [4] is reported as ~100 fold and 50-100 fold.
